One experiment concerns the target T1, Human CLDN18.1 (human, UniProt P56856 1-261).
T1 construct: also called hCLDN18.1
The experiment is described as follows: flow cytometry, 293T-hCLDN18.1 cells. A general note: Flow cytometry measures light scatter and fluorescence of single cells or particles in a stream.

In experiment [1] the target is Human CLDN18.2 (human). The experiment is described as follows: cell-based or functional assay.
Experiment [2] deals with T2, Human CLDN18.2 (human).
T2 construct: the cell line is named under assay; also called hCLDN18.2; human CLDN18.2 antigen
The experiment is described as follows: flow cytometry, NUGC4-hCLDN18.2 cells.
Experimental: (§1) NUGC4 and NUGC4-hCLDN18.2 cells were cultured, digested with pancreatin and centrifuged to collect cells. The cells were collected and resuspended in buffer (PBS+1% FBS) at 1×10⁴ cells/well in a 96-well plate at 100 μL per well. Then the mixture was centrifuged at 350×g for 5 min, and the supernatant was removed.

Experiment [3] deals with T3, human CD3 antigen (human, UniProt P07766 23-126).
T3 construct: also called Human CD3ϵ
The experiment can be described thus: SPR (Biacore T200), human CD3 antigen on CM5 chip. (SPR reads the build-up and loss of mass on a sensor chip optically.)
Experimental: (§2) After the detection was completed, data fitting was carried out on the result pattern by adopting Biacore T200 Evaluation Software in a 1:1 binding fitting mode to obtain an equilibrium dissociation constant (KD).

Experiment [4] concerns the target T2, Human CLDN18.2. The experiment is described as follows: flow cytometry, NUGC4 cells (endogenous CLDN18.2).
The target of experiment [5] is T2, Human CLDN18.2. The experiment is described as follows: flow cytometry, NUGC4 cells (endogenous CLDN18.2). This is another data set of the same source.
Experimental: as §1
Experiment [6] has as its target T2, Human CLDN18.2. The experiment can be described thus: cell-based or functional assay. The source holds these as a separate data set.
Experiment [7] concerns the target T2, Human CLDN18.2. The experiment can be described thus: cell-based or functional assay. This is another data set of the same source.
Experiment [8] addresses T3, human CD3 antigen. The experiment can be described thus: SPR (Biacore T200), human CD3 antigen amine-coupled on CM5 chip, 1:1 fit.
Experimental: as §2
Experiment [9] deals with T2, Human CLDN18.2. The experiment can be described thus: flow cytometry, NUGC4-hCLDN18.2 cells. The source holds these as a separate data set.
Experimental: as §1

B1: bispecific antibody CS6 (bispecific antibody, human IgG1, kappa)
light: DIVMTQSPSSLTVTAGEKVTMSCKSSQSLLNSGNQKNYLTWYQQKPGQPPKLLIYWASTRESGVPDRFTGSGSGTDFTLTISSVQAEDLAVYYCQNDYSYPFTFGSGTKLEIKRTVAAPSVFIFPPSDEQLKSGTASVVCLLNNFYPREAKVQWKVDNALQSGNSQESVTEQDSKDSTYSLSSTLTLSKADYEKHKVYACEVTHQGLSSPVTKSFNRGEC
heavy 1: QVQLQQPGAELVRPGASVKLSCKASGYTFTSYWINWVKQRPGQGLEWIGNIYPSDSYTNYNQKFKDKATLTVDKSSSTAYMQLSSPTSEDSAVYYCTRSWRGNSFDYWGQGTTLTVSSASTKGPSVFPLAPSSKSTSGGTAALGCLVKDYFPEPVTVSWNSGALTSGVHTFPAVLQSSGLYSLSSVVTVPSSSLGTQTYICNVNHKPSNTKVDKKVEPKSCDKTHTCPPCPAPPVAGPSVFLFPPKPKDTLMISRTPEVTCVVVDVSHEAPEVQFNWYVDGVEVHNAKTKPREEQFNSTFRVVSVLTVVHQDWLNGKEYKCKVSNKGLPAPIEKTISKTKGQPREPQVYTLPPCRDELTKNQVSLWCLVKGFYPSDIAVEWESNGQPENNYKTTPPVLDSDGSFFLYSKLTVDKSRWQQGNVFSCSVMHEALHNHYTQKSLSLSPGK
heavy 2: QVQLQQPGAELVRPGASVKLSCKASGYTFTSYWINWVKQRPGQGLEWIGNIYPSDSYTNYNQKFKDKATLTVDKSSSTAYMQLSSPTSEDSAVYYCTRSWRGNSFDYWGQGTTLTVSSASTKGPSVFPLAPSSKSTSGGTAALGCLVKDYFPEPVTVSWNSGALTSGVHTFPAVLQSSGLYSLSSVVTVPSSSLGTQTYICNVNHKPSNTKVDKKVEPKSCDKTHTAPAPAPAPAPAPAPAPQVQLVESGGGVVQPGRSLRLSCAASGFTFSTYAMNWVRQAPGKGLEWVGRIRSKYNNYATYYADSVKDRFTISRDDSKNTLYLQMNSLRGEDTAVYYCARHGNFGNSYVSWFAYWGQGTLVTVSSGGGGSGGGGSGGGGSQTVVTQEPSLTVSPGGTVTLTCRSSTGAVTTSNYANWVQQKPGQAPRGLIGGTNKRAPGVPARFSGSLLGGKAALTLSGVQPEDEAEYTCALWYSNLWVFGGGTKVEIKGGGGSDKTHTCPPCPAPPVAGPSVFLFPPKPKDTLMISRTPEVTCVVVDVSHEAPEVQFNWYVDGVEVHNAKTKPREEQFNSTFRVVSVLTVVHQDWLNGKEYKCKVSNKGLPAPIEKTISKTKGQPREPQVCTLPPSRDELTKNQVSLSCAVKGFYPSDIAVEWESNGQPENNYKTTPPVLDSDGSFFLVSKLTVDKSRWQQGNVFSCSVMHEALHNHYTQKSLSLSPGK
notes: CSBODY structure: two 175D10 Fab arms; second heavy chain (first heavy entry) and first heavy chain with anti-CD3 scFv (Di6-2) between CH1 and Fc2
By EC50 is commonly meant the midpoint of the concentration-response curve. A high value points to a less potent agent. The Kd is the equilibrium constant for the complex coming apart. Low values mean higher affinity, high ones lower affinity. As for B1, in the experiment with Human CLDN18.1, the binding result is given as “no binding”. In addition, the “EC50 value for killing effect on NUGC4-hCLDN18.2 cells” value (shortened to “EC50 value … on NUGC4-hCLDN18.2 cells”) in the experiment with Human CLDN18.2 [1] was below 0.01 nM. This molecule also showed an EC50 with Human CLDN18.2 [2] below 50 nM. The molecule also gave a Kd with human CD3 antigen [3] below 15 nM.

B2: bispecific antibody CS11 (bispecific antibody, human IgG1, kappa)
light: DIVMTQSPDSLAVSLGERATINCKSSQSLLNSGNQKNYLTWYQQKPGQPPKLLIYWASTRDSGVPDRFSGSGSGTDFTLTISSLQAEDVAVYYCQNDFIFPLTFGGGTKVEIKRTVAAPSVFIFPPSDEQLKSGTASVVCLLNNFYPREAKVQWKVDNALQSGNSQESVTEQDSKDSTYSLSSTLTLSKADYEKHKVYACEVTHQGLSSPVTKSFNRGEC
heavy 1: QVQLQESGPGLVKPSETLSLTCTVSGFSLTRYGVSWIRQPPGKGLEWIGVIWGEGNTNYNPSLKSRVTISKDSSKSQVSLKLSSVTAADTAVYYCARVNFGNALDYWGQGTLVTVSSASTKGPSVFPLAPSSKSTSGGTAALGCLVKDYFPEPVTVSWNSGALTSGVHTFPAVLQSSGLYSLSSVVTVPSSSLGTQTYICNVNHKPSNTKVDKKVEPKSCDKTHTCPPCPAPPVAGPSVFLFPPKPKDTLMISRTPEVTCVVVDVSHEAPEVQFNWYVDGVEVHNAKTKPREEQFNSTFRVVSVLTVVHQDWLNGKEYKCKVSNKGLPAPIEKTISKTKGQPREPQVYTLPPCRDELTKNQVSLWCLVKGFYPSDIAVEWESNGQPENNYKTTPPVLDSDGSFFLYSKLTVDKSRWQQGNVFSCSVMHEALHNHYTQKSLSLSPGK
heavy 2: not shown
notes: CSBODY structure: two 2C6.9 Fab arms; second heavy chain (first heavy entry) and first heavy chain with anti-CD3 scFv (L2K) between CH1 and Fc2
Consider B2, for which, in the experiment with Human CLDN18.1, the binding result was “no binding”. Further, the “EC50 value … on NUGC4-hCLDN18.2 cells” value with Human CLDN18.2 [1] is below 0.01 nM. Besides, in the experiment with Human CLDN18.2 [1], the “EC50 value for killing effect on NUGC4 cells” value (shortened to “EC50 value … on NUGC4 cells”) is below 0.01 nM. The EC50 with Human CLDN18.2 [2] is below 50 nM; with Human CLDN18.2 [4], below 100 nM.

B3: bispecific antibody CS3 (bispecific antibody, human IgG1, kappa)
light: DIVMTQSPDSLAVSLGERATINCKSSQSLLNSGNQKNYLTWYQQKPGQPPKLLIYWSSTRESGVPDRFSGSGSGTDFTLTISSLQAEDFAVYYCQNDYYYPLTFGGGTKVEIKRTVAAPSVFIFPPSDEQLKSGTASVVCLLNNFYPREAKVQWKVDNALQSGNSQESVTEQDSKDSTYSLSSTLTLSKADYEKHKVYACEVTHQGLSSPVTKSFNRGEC
heavy 1: EVQLVESGGGLVKPGGSLRLSCAASGFSFSNSAMSWVRQAPGKGLEWVSTISSGDSYTYYADSVKGRFTISRDNAKNSLYLQMNSLRAEDTAVYYCARQGYGNALDYWGQGTLVTVSSASTKGPSVFPLAPSSKSTSGGTAALGCLVKDYFPEPVTVSWNSGALTSGVHTFPAVLQSSGLYSLSSVVTVPSSSLGTQTYICNVNHKPSNTKVDKKVEPKSCDKTHTCPPCPAPPVAGPSVFLFPPKPKDTLMISRTPEVTCVVVDVSHEAPEVQFNWYVDGVEVHNAKTKPREEQFNSTFRVVSVLTVVHQDWLNGKEYKCKVSNKGLPAPIEKTISKTKGQPREPQVYTLPPCRDELTKNQVSLWCLVKGFYPSDIAVEWESNGQPENNYKTTPPVLDSDGSFFLYSKLTVDKSRWQQGNVFSCSVMHEALHNHYTQKSLSLSPGK
heavy 2: EVQLVESGGGLVKPGGSLRLSCAASGFSFSNSAMSWVRQAPGKGLEWVSTISSGDSYTYYADSVKGRFTISRDNAKNSLYLQMNSLRAEDTAVYYCARQGYGNALDYWGQGTLVTVSSASTKGPSVFPLAPSSKSTSGGTAALGCLVKDYFPEPVTVSWNSGALTSGVHTFPAVLQSSGLYSLSSVVTVPSSSLGTQTYICNVNHKPSNTKVDKKVEPKSCDKTHTAPAPAPAPAPAPAPAPQVQLVESGGGVVQPGRSLRLSCAASGFTFSTYAMNWVRQAPGKGLEWVARIRSKYNNYATYYADSVKDRFTISRDDSKNTLYLQMNSLRAEDTAVYYCARHGNFGNSYVSWFAYWGQGTLVTVSSGGGGSGGGGSGGGGSQTVVTQEPSLTVSPGGTVTLTCRSSTGAVTTSNYANWVQQKPGQAPRGLIGGTNKRAPGVPARFSGSLLGGKAALTLSGVQPEDEAEYYCALWYSNLWVFGGGTKVEIKGGGGSDKTHTCPPCPAPPVAGPSVFLFPPKPKDTLMISRTPEVTCVVVDVSHEAPEVQFNWYVDGVEVHNAKTKPREEQFNSTFRVVSVLTVVHQDWLNGKEYKCKVSNKGLPAPIEKTISKTKGQPREPQVCTLPPSRDELTKNQVSLSCAVKGFYPSDIAVEWESNGQPENNYKTTPPVLDSDGSFFLVSKLTVDKSRWQQGNVFSCSVMHEALHNHYTQKSLSLSPGK
notes: CSBODY structure: two 1E9.2 Fab arms; second heavy chain (first heavy entry) and first heavy chain with anti-CD3 scFv (2a5) between CH1 and Fc2
In turn, B3 registered an EC50 with Human CLDN18.2 [5] of 64 nM. In the experiment with Human CLDN18.2 [6], the “Induction of expression of CD25 EC50 (pM), NUGC4” value turned out to be 5.38 pM; the “Induction of expression of CD25 EC50 (pM), NUGC4-hCLDN18.2” value was found to be 5.45 pM; the “Induction of expression of CD69 EC50 (pM), NUGC4” value worked out at 0.461 pM; the “Induction of expression of CD69 EC50 (pM), NUGC4-hCLDN18.2” value is 1.45 pM. For the same molecule, in the experiment with Human CLDN18.2 [7], the “EC50 (pM), in vitro killing by hPBMC, NUGC4-hCLDN18.2 cells” value was found to be 0.698 pM and the “EC50 (pM), in vitro killing by hPBMC, NUGC4 cells” value was determined as 0.333 pM. Binding with human CD3 antigen [8] was characterised by a dissociation constant (Kd) of 10 nM. In the experiment with Human CLDN18.2 [9], the EC50 is 31.5 nM.

B4: bispecific antibody CS10 (bispecific antibody, human IgG1, kappa)
light: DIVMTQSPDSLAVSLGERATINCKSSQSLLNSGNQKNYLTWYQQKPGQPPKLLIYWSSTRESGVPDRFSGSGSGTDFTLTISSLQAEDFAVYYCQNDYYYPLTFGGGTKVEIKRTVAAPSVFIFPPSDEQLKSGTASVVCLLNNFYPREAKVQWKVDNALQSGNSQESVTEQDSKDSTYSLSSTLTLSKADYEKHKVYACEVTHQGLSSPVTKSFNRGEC
heavy 1: B3 heavy 1
heavy 2: not shown
notes: CSBODY structure: two 1E9.2 Fab arms; second heavy chain (first heavy entry) and first heavy chain with anti-CD3 scFv (L2K) between CH1 and Fc2
As for B4, the binding result in the experiment with Human CLDN18.1 is given as “no binding”. Further, the “EC50 value … on NUGC4-hCLDN18.2 cells” value with Human CLDN18.2 [1] is below 0.01 nM. In addition, the “EC50 value … on NUGC4 cells” value in the experiment with Human CLDN18.2 [1] was below 0.01 nM. The EC50 is below 50 nM with Human CLDN18.2 [2] and below 100 nM in the experiment with Human CLDN18.2 [4].

B5: bispecific antibody Y18 (bispecific antibody, human IgG1, kappa)
light: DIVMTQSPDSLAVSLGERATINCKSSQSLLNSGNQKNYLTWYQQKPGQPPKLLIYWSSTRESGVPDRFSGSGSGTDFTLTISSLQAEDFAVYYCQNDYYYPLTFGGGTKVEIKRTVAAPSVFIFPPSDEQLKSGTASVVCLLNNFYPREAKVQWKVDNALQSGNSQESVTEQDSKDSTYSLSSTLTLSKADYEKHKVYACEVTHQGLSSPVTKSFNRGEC
heavy: B3 heavy 1
chain: not shown
notes: YBODY structure: anti-CLDN18.2 Fab arm (1E9.2) and second monomer anti-CD3 scFv (L2K)-Fc
In the case of B5, in the experiment with Human CLDN18.1, the binding result is given as “no binding”. The “EC50 value … on NUGC4-hCLDN18.2 cells” value with Human CLDN18.2 [1] is below 0.01 nM. Besides, the “EC50 value … on NUGC4 cells” value with Human CLDN18.2 [1] was below 0.01 nM. Besides, the EC50 was below 50 nM with Human CLDN18.2 [2] and below 100 nM in the experiment with Human CLDN18.2 [4].

B6: bispecific antibody Y4 (bispecific antibody, human IgG1, kappa)
light: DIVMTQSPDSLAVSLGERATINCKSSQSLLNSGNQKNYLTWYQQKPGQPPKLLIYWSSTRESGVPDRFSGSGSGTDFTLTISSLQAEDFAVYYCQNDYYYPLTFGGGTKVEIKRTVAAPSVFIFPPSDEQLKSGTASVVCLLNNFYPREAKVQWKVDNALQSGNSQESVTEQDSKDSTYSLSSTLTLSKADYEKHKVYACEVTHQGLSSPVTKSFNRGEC
heavy: B3 heavy 1
chain: QVQLVESGGGVVQPGRSLRLSCAASGFTFSTYAMNWVRQAPGKGLEWVARIRSKYNNYATYYADSVKDRFTISRDDSKNTLYLQMNSLRAEDTAVYYCARHGNFGNSYVSWFAYWGQGTLVTVSSGGGGSGGGGSGGGGSQTVVTQEPSLTVSPGGTVTLTCRSSTGAVTTSNYANWVQQKPGQAPRGLIGGTNKRAPGVPARFSGSLLGGKAALTLSGVQPEDEAEYYCALWYSNLWVFGGGTKVEIKGRGRGSDKTHTCPPCPAPPVAGPSVFLFPPKPKDTLMISRTPEVTCVVVDVSHEAPEVQFNWYVDGVEVHNAKTKPREEQFNSTFRVVSVLTVVHQDWLNGKEYKCKVSNKGLPAPIEKTISKTKGQPREPQVCTLPPSRDELTKNQVSLSCAVKGFYPSDIAVEWESNGQPENNYKTTPPVLDSDGSFFLVSKLTVDKSRWQQGNVFSCSVMHEALHNHYTQKSLSLSPGK
notes: YBODY structure: anti-CLDN18.2 Fab arm (1E9.2) and second monomer anti-CD3 scFv (2a5)-Fc
In the experiment with Human CLDN18.2 [5], B6 gave an EC50 of 58.9 nM. Also, in the experiment with Human CLDN18.2 [6], the “Induction of expression of CD25 EC50 (pM), NUGC4” value is 12.2 pM; the “Induction of expression of CD25 EC50 (pM), NUGC4-hCLDN18.2” value stood at 0.962 pM; the “Induction of expression of CD69 EC50 (pM), NUGC4” value turned out to be 0.61 pM; the “Induction of expression of CD69 EC50 (pM), NUGC4-hCLDN18.2” value amounted to 0.67 pM. In the experiment with Human CLDN18.2 [7], the “EC50 (pM), in vitro killing by hPBMC, NUGC4-hCLDN18.2 cells” value stood at 0.378 pM and the “EC50 (pM), in vitro killing by hPBMC, NUGC4 cells” value is 137 pM. The molecule also registered a Kd with human CD3 antigen [8] of 5.74 nM. In the experiment with Human CLDN18.2 [9], this molecule returned an EC50 of 24.4 nM.

These data come from patent US20230192903A1 (published 2023).
